Results on 11 molecules are retold here after patent US20260285997 (published 2026).

Sequences and labels used below:
B1: BEAT 1a1 FLAG arm (antibody)
chain: DVVMTQSPDSLAVSLGERATINCKSSQSIVHRNGNTYLEWYQQKPGQPPKLLIYKVSNRFSGVPDRFSGSGSGTDFTLTISSLQAEDVAVYYCFQGSHVPYTFGGGTKLEIKGGGGSGGGGSGGGGSQVQLVQSGAEVKKPGASVKVSCKASGYSFTTYTIHWVRQAPGQGLEWIGYINPSSGYAAYNQKFQGRVTLTADKSTSTAYMELSSLRSEDTAVYYCAREKFYGYDYWGQGTTVTVSS
B2: BEAT 1a4 FLAG arm (antibody)
chain: B1 chain
B3: BEAT 1a2 FLAG arm (antibody)
chain: B1 chain
B4: BEAT 1a3 FLAG arm (antibody)
chain: B1 chain
B5: BEAT 1a8 FLAG arm (antibody)
chain: QVQLVQSGAEVKKPGASVKVSCKASGYSFTTYTIHWVRQAPGQGLEWIGYINPSSGYAAYNQKFQGRVTLTADKSTSTAYMELSSLRSEDTAVYYCAREKFYGYDYWGQGTTVTVSSGGGGSGGGGSGGGGSGGGGASDVVMTQSPDSLAVSLGERATINCKSSQSIVHRNGNTYLEWYQQKPGQPPKLLIYKVSNRFSGVPDRFSGSGSGTDFTLTISSLQAEDVAVYYCFQGSHVPYTFGGGTKLEIK
B6: BEAT 1a6 FLAG arm (antibody)
chain: B5 chain
B7: BEAT 1a7 FLAG arm (antibody)
chain: B5 chain
B8: BEAT 1a5 FLAG arm (antibody)
chain: B5 chain
B9: BEAT 1a6 CD40 arm (antibody, V domains shown)
VH: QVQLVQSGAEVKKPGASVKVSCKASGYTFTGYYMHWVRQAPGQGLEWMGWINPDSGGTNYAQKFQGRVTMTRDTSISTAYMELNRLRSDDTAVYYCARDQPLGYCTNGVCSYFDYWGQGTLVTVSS
VL: DIQMTQSPSSVSASVGDRVTITCRASQGIYSWLAWYQQKPGKAPNLLIYTASTLQSGVPSRFSGSGSGTDFTLTISSLQPEDFATYYCQQANIFPLTFGGGTKVEIK
B10: BEAT 1b1 CD40 arm (antibody, V domains shown)
VH: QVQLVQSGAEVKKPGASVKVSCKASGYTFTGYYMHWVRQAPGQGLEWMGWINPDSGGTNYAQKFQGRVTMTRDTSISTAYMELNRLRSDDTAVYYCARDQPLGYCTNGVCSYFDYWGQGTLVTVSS
VL: B9 VL
B11: BEAT 2a7 FLAG arm (antibody)
chain: B5 chain

Values joined by “and” are separate entries in the source; they are usually repeats but may differ in a detail not shown here. Equal entries are not always repeated.

CD40, sequence (P25942 21-193): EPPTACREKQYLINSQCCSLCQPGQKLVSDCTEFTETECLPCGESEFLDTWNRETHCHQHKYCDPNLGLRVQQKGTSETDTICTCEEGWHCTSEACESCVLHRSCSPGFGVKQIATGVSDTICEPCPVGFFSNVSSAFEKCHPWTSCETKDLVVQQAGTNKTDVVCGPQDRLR

The target of the first experiment is T1, FLAG-BAP (FLAG tag fused to bacterial alkaline phosphatase). Description: SPR. In general terms: SPR reads the build-up and loss of mass on a sensor chip optically.
As usually defined, the Kd is a measure of binding affinity in units of concentration. A high value points to lower affinity. For B1, the Kd was 0.671 nM and 0.798 nM.

On to B2, for which the Kd is 6.9 nM and 5.04 nM. As to B3, the Kd is 1.26 nM and 1.99 nM.

For the molecule B4, the Kd is 1.22 nM and 1.24 nM and 1.65 nM. For the molecule B5, the Kd was 10.1 nM and 8.85 nM. Turning to B6, the Kd is 15.5 nM and 27.4 nM. B7: the Kd is 10.9 nM and 13.5 nM and 7.81 nM. In the case of B8, the Kd was 21.9 nM and 15.4 nM.

Another experiment concerns the target CD40 (human, UniProt P25942). Description: SPR.
On to B9, for which the dissociation constant (Kd) is 0.371 nM and 0.394 nM.

For B10, the Kd was 0.379 nM and 0.62 nM.

In another experiment the target is T1, FLAG-BAP. As to the kind of experiment: SPR. This is another data set of the same source.
With B11, the dissociation constant (Kd) is 6.59 nM and 9.46 nM.
